From patent US20030096747A1

Target: VEGFR-1 expressed in rat cavernous smooth muscle cells (CSMC) (rat) (UniProt P53767)
Assay: cell-based or functional assay

VEGFR-1 expressed in rat cavernous smooth muscle cells (CSMC) (rat), sequence (P53767 23-1336): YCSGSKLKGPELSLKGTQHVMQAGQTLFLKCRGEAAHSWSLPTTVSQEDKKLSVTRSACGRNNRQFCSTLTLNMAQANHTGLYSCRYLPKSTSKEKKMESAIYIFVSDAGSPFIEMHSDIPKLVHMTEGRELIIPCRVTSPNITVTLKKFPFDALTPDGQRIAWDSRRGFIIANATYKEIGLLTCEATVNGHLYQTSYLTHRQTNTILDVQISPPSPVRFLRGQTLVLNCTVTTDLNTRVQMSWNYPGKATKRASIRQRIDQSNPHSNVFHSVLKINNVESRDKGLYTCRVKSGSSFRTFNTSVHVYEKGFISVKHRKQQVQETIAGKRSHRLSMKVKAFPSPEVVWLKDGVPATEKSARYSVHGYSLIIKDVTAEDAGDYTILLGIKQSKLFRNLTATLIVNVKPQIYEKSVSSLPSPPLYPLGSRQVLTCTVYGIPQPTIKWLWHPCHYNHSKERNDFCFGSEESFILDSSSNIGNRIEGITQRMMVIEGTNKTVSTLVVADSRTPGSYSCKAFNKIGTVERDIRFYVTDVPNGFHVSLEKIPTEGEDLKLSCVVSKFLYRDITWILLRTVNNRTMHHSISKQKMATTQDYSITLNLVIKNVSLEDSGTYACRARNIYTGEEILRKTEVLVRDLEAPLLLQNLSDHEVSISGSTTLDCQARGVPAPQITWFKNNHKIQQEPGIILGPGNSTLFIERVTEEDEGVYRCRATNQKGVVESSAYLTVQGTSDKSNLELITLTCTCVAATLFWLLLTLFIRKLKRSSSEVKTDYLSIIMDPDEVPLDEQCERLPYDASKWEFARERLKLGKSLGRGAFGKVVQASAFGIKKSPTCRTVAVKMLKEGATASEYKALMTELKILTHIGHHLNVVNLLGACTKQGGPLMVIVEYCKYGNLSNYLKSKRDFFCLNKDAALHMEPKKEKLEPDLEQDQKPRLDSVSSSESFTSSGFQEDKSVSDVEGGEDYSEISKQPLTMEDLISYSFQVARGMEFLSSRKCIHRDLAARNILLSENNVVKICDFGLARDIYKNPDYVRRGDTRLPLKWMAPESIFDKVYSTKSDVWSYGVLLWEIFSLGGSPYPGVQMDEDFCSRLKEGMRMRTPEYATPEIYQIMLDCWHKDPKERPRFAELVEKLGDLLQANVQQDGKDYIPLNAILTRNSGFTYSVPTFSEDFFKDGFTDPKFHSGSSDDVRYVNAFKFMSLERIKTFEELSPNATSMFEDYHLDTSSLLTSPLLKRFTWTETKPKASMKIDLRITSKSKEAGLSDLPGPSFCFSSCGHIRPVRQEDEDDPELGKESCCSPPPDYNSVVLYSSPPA

migration of rat CSMC (Transwell, 4 hr); optimal VEGF concentration: 10 ng/mL
proliferation of rat CSMC (CellTiter-96, OD490nm, 3 days); optimal VEGF concentration: 12.5 ng/mL
Substance: Recombinant human VEGF165 (from UniProt P15692 27-191) (ligand)
